Patent US20240272170A1 (QUANTUM SI, published 2024)

Assays:
[1] = molecular target: T1, QP1165 after cleavage to N-terminal leucine (LKQRVWK); test: on-chip dynamic sequencing of QP1165, PS2123 run, trace Aperture=1168773
T1 peptide: LKQRVWK

[2] = molecular target: T2, QP1165 after cleavage to N-terminal isoleucine (IAFLKQRVWK); test: as above
T2 peptide: IAFLKQRVWK

[3] = molecular target: T1, QP1165 after cleavage to N-terminal …; test: on-chip dynamic sequencing of QP1165, PS2121 run, trace Aperture=1683362
[4] = molecular target: T2, QP1165 after cleavage to N-terminal …; test: as above
[5] = molecular target: T2, QP1165 after cleavage to N-terminal …; test: on-chip dynamic sequencing of QP1165, PS2132 run, trace Aperture=376215
[6] = molecular target: T1, QP1165 after cleavage to N-terminal …; test: on-chip dynamic sequencing of QP1165, PS2123 run, trace Aperture=501326
[7] = molecular target: T2, QP1165 after cleavage to N-terminal …; test: as above
[8] = molecular target: T1, QP1165 after cleavage to N-terminal …; test: on-chip dynamic sequencing of QP1165, PS1875 run, trace Aperture=1377116
Method: The semiconductor chip was placed in the sequencing device and a chip check was performed to test electronic circuit function and to optimize laser coupling alignment. The chip was then removed from the device socket and the chip was washed twice with 50 μL of 70% isopropanol, followed by four washes with 30 μL of wash buffer (50 mM MOPS pH 8.0, 60 mM potassium acetate, 50 mM glucose, 20 mM magnesium acetate, and surfactant mix) through a flow cell attached to the chip. A second chip check was then performed. The laser was then blocked via an integrated software-controlled shutter, peptide complex was added to a final concentration of 1-10 nM and mixed thoroughly, and the chip was incubated for 15 min. The chip was then washed six times with wash buffer, followed by addition of an imaging solution (wash buffer with 5 mM Trolox and an oxygen scavenging system). The laser was unblocked and the occupancy percentage (target 10-30%, Poisson distributed) was recorded by acquiring a photobleaching signal from a fluorophore attached to the peptide complex during 5 min of laser illumination. […] Data was recorded for 15 min. The laser was then blocked briefly and aminopeptidases were added to the sequencing reaction via the flow cell and mixed thoroughly (final concentration 2-8 μM PhTET2 and/or 20-80 μM PhTET3, as indicated according to the experiment). The laser was then unblocked, and data was recorded for 10 hours. For all runs, 30 μL of mineral oil was added to fluid reservoirs at each port of the flow cell to prevent evaporation during the run.

[9] = molecular target: T1, QP1165 after cleavage to N-terminal …; test: on-chip dynamic sequencing of QP1165, PS2132 run, trace Aperture=1826247
[10] = molecular target: T2, QP1165 after cleavage to N-terminal …; test: on-chip dynamic sequencing of QP1165, PS1875 run, trace Aperture=1311609
[11] = molecular target: T1, QP1165 after cleavage to N-terminal …; test: on-chip dynamic sequencing of QP1165, 500 nM PS2121 plus five recognizers, 15527 alignments
[12] = molecular target: T2, QP1165 after cleavage to N-terminal …; test: as above
[13] = molecular target: T1, QP1165 after cleavage to N-terminal …; test: on-chip dynamic sequencing of QP1165, 500 nM PS2123 plus five recognizers, 62511 alignments
[14] = molecular target: T2, QP1165 after cleavage to N-terminal …; test: as above
[15] = molecular target: T1, QP1165 after cleavage to N-terminal …; test: on-chip dynamic sequencing of QP1165, PS1875 run, trace Aperture=430641
[16] = molecular target: T1, QP1165 after cleavage to N-terminal …; test: on-chip dynamic sequencing of QP1165, PS2121 run, trace Aperture=740473
[17] = molecular target: T2, QP1165 after cleavage to N-terminal …; test: as above
[18] = molecular target: T1, QP1165 after cleavage to N-terminal …; test: on-chip dynamic sequencing of QP1165, 500 nM PS2132 plus five recognizers, 36192 alignments
[19] = molecular target: T2, QP1165 after cleavage to N-terminal …; test: as above
[20] = molecular target: T1, QP1165 after cleavage to N-terminal …; test: on-chip dynamic sequencing of QP1165, 500 nM PS1875 plus five recognizers, 7305 alignments
[21] = molecular target: T2, QP1165 after cleavage to N-terminal …; test: as above

PD of a recognition segment in an example trace [1]: 0.39 s
PD of a recognition segment in an example trace [2]: 0.53 s
PD of a recognition segment in an example trace [3]: 0.28 s
PD of a recognition segment in an example trace [4]: 0.52 s
PD of a recognition segment in an example trace [5]: 0.49 s
PD of a recognition segment in an example trace [6]: 0.39 s
PD of a recognition segment in an example trace [7]: 0.51 s
PD of a recognition segment in an example trace [8]: 0.68 s
PD of a recognition segment in an example trace [9]: 0.52 s
PD of a recognition segment in an example trace [10]: 0.61 s
IPD (interpulse duration) [11]: 16.6 s
PD (pulse duration) [11]: 0.63 s
IPD (interpulse duration) [12]: 8.64 s
PD (pulse duration) [12]: 0.7 s
IPD (interpulse duration) [13]: 17.3 s
PD (pulse duration) [13]: 0.54 s
IPD (interpulse duration) [14]: 9.24 s
PD (pulse duration) [14]: 0.73 s
PD of a recognition segment in an example trace [15]: 0.64 s
PD of a recognition segment in an example trace [16]: 0.49 s
PD of a recognition segment in an example trace [17]: 0.5 s
IPD (interpulse duration) [18]: 17.4 s
PD (pulse duration) [18]: 0.54 s
IPD (interpulse duration) [19]: 9.74 s
PD (pulse duration) [19]: 0.66 s
IPD (interpulse duration) [20]: 15.4 s
PD (pulse duration) [20]: 0.65 s
IPD (interpulse duration) [21]: 8.02 s
PD (pulse duration) [21]: 1.15 s
B1: PS1223 (designed binder)
single polypeptide, two PS961 units in tandem: MPTAASATESAIEDTPAPARPEVDGRTKPKRQPRYHVVLWDDDDHTYQYVVVMLRSLFGHPPSRGYRMAKEMDTQGRVIVLTTTREHAELKRDQIHAFGRDRLLARSKGSMKASIEAEEGSAGSAAGSGEFGSAGSAAGSGEFGSAGSAAGSGEFMPTAASATESAIEDTPAPARPEVDGRTKPKRQPRYHVVLWDDDDHTYQYVVVMLRSLFGHPPSRGYRMAKEMDTQGRVIVLTTTREHAELKRDQIHAFGRDRLLARSKGSMKASIEAEE
notes: dye-labelled recognizer for N-terminal L, I, V in the six-recognizer runs; also called PS1223 (LIV)
